Patent publication US20140206011A1

Assays:
E-cadherin (human) = E-cadherin (human) (UniProt P12830); test: cell-based or functional assay
[1] = molecular target: FadA on wild-type Fusobacterium nucleatum 12230 (Fusobacterium nucleatum); test: cell-based or functional assay

Sequence of UniProt P12830 (P12830 155-882): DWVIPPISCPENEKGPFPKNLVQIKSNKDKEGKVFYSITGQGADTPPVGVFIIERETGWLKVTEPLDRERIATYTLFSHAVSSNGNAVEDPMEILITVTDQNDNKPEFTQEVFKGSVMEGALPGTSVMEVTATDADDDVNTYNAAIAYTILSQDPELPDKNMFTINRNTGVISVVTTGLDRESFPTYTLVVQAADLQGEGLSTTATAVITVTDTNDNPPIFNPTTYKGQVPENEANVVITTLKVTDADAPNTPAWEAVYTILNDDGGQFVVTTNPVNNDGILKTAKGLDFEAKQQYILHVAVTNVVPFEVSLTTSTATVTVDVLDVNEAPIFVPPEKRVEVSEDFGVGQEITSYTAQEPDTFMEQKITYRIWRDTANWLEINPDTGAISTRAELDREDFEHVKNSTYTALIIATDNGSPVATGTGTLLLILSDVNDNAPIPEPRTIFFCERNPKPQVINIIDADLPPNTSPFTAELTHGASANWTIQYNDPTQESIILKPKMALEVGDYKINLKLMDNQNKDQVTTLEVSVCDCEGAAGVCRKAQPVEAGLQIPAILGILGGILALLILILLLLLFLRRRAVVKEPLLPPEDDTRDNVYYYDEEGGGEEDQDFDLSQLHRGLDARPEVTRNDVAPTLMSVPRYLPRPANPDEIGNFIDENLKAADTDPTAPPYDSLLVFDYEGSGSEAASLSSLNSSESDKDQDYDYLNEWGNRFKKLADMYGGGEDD

Substance “FadA on wild-type Fusobacterium nucleatum 12230” has an attachment level of Fn to HCT116 (percent bacteria recovered relative to inoculum), FIG. 3C without inhibition (E-cadherin (human)) of 4.4%, an attachment level of Fn to HCT116 without inhibition, FIG. 4B (E-cadherin (human)) of 6.3% and an attachment level of Fn to HCT116 without inhibition, FIG. 4C (E-cadherin (human)) of 5.9%. For the same substance, the invasion level of Fn into HCT116 (percent bacteria recovered relative to inoculum), FIG. 3C without inhibition (E-cadherin (human)) was 1.3%, the invasion level of Fn into HCT116 without inhibition, FIG. 4B (E-cadherin (human)) was 1.6% and the invasion level of Fn into HCT116 without inhibition, FIG. 4C (E-cadherin (human)) was 1.4%.

“GST-EC5 fusion protein (from UniProt P12830 594-697)” showed an inhibition of Fn attachment and invasion of HCT116 [1] of 0.1 µM.

For FadAc, the HCT116 cell growth (cell proliferation assay) (E-cadherin (human)) was 1 mg/mL and the HCT116 xenograft tumor growth in nude mice (E-cadherin (human)) was 20%.
